Laboratory results: patent US20150203577A1 (Chugai, published 2015)
Substitutions are numbered along the chain they refer to. Numbers in names are those of the source.

T1: mouse FcγRII extracellular domain, C-terminal His tag (mouse, UniProt P08101 30-210)
T1 construct: also called mFcγRII; mFcgRII
T1 sequence: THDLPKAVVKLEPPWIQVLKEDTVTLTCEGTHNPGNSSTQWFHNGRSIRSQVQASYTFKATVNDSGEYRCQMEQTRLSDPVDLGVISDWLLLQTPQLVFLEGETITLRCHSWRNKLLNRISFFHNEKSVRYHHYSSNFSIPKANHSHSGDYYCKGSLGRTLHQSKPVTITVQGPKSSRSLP

T2: mouse FcγRIII extracellular domain, C-terminal His tag (mouse, UniProt P08508 31-215)
T2 construct: also called mFcγRIII; mFcgRIII
T2 chain: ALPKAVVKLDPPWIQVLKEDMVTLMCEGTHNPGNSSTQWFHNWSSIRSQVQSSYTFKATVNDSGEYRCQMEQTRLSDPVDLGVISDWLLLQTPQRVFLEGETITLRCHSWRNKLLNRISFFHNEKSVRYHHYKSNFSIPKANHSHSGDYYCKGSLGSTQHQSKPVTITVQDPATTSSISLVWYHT

B1: H237-MB750/MRAL-k0 (antibody, mouse IgG1, kappa)
heavy: QVQLQESGPGLVKPSETLSLTCAVSGHSISHDHAWSWVRQPPGEGLEWIGFISYSGITNYNPSLQGRVTISRDNSKNTLYLQMNSLRAEDTAVYYCARSLARTTAMDYWGEGTLVTVSSAKTTPPSVYPLAPGSAAQTNSMVTLGCLVKGYFPEPVTVTWNSGSLSSGVHTFPAVLQSDLYTLSSSVTVPSSTWPSETVTCNVAHPASSTKVDKKIVPRDCGCKPCICEPNEVELVFIFPPKPKDVLTITLTPKVTCVVVDISKDDPEVQFSWFVDDVEVHTAQTQPREEQFNSTFRSVSELPIMHQDWLNGKEFKCRVNSDAFPAPIEKTISKTKGRPKAPQVYTIPPPKEQMAKDKVSLTCMITDFFPEDITVEWQWNGQPAENYKNTQPIMDTDGSYFVYSKLNVQKSNWEAGNTFTCSVLHEGLHNHHTEKSLSHSPGK
light: not shown
notes: copies: 2 + 2
B2: H237-MB536/MRAL-k0 (antibody, mouse IgG1, kappa)
heavy: B1 heavy with E229Q, L235E, N320D, K330R
light: not shown
notes: copies: 2 + 2
B3: H237-MB476/MRAL-k0 (antibody, mouse IgG1, kappa)
heavy: B1 heavy with E229Q, L235E, D322A
light: not shown
notes: copies: 2 + 2
B4: H237-MB630/MRAL-k0 (antibody, mouse IgG1, kappa)
heavy: B1 heavy with D322A
light: not shown
notes: copies: 2 + 2
B5: H237-MB542/MRAL-k0 (antibody, mouse IgG1, kappa)
heavy: B1 heavy with L235M, N320D
light: not shown
notes: copies: 2 + 2
B6: H237-MB545/MRAL-k0 (antibody, mouse IgG1, kappa)
heavy: B1 heavy with L235M, S294L, N320D
light: not shown
notes: copies: 2 + 2
B7: H237-MB533/MRAL-k0 (antibody, mouse IgG1, kappa)
heavy: B1 heavy with E229Q, L235E, S294L, N320D
light: not shown
notes: copies: 2 + 2
B8: H237-MB535/MRAL-k0 (antibody, mouse IgG1, kappa)
heavy: B1 heavy with E229Q, L235E, S294L, K330R
light: not shown
notes: copies: 2 + 2
B9: H237-MB539/MRAL-k0 (antibody, mouse IgG1, kappa)
heavy: B1 heavy with L235M, S294L, N320D, D322A
light: not shown
notes: copies: 2 + 2
B10: H237-MB527/MRAL-k0 (antibody, mouse IgG1, kappa)
heavy: B1 heavy with E229Q, L235E, S294L, N320D, D322A
light: not shown
notes: copies: 2 + 2
B11: H237-MB756/MRAL-k0 (antibody, mouse IgG1, kappa)
heavy: B1 heavy with S294L, D322A, K330R
light: not shown
notes: copies: 2 + 2
B12: H237-MB544/MRAL-k0 (antibody, mouse IgG1, kappa)
heavy: B1 heavy with L235M, K330R
light: not shown
notes: copies: 2 + 2
B13: H237-MB529/MRAL-k0 (antibody, mouse IgG1, kappa)
heavy: B1 heavy with E229Q, L235E, S294L, D322A, K330R
light: not shown
notes: copies: 2 + 2
B14: H237-MB538/MRAL-k0 (antibody, mouse IgG1, kappa)
heavy: B1 heavy with L235M, S294L, D322A
light: not shown
notes: copies: 2 + 2
B15: H237-MB530/MRAL-k0 (antibody, mouse IgG1, kappa)
heavy: B1 heavy with E229Q, L235E, N320D
light: not shown
notes: copies: 2 + 2
B16: H237-MB751/MRAL-k0 (antibody, mouse IgG1, kappa)
heavy: B1 heavy with D322A, K330R
light: not shown
notes: copies: 2 + 2
B17: H237-MB548/MRAL-k0 (antibody, mouse IgG1, kappa)
heavy: B1 heavy with L235M, N320D, K330R
light: not shown
notes: copies: 2 + 2
B18: H237-MB537/MRAL-k0 (antibody, mouse IgG1, kappa)
heavy: B1 heavy with E229Q, L235E, S294L, N320D, K330R
light: not shown
notes: copies: 2 + 2
B19: H237-MB710/MRAL-k0 (antibody)
heavy: B1 heavy with N231A, L235Q, D322A
light: not shown
notes: T0025 prints T230E/V231P/P232N/S238E/S239Q for MB710; EU numbering; copies: 2 + 2
B20: H237-MB543/MRAL-k0 (antibody, mouse IgG1, kappa)
heavy: B1 heavy with L235M, N320D, D322A, K330R
light: not shown
notes: copies: 2 + 2
B21: H237-MB549/MRAL-k0 (antibody, mouse IgG1, kappa)
heavy: B1 heavy with L235M, S294L, N320D, K330R
light: not shown
notes: copies: 2 + 2
B22: H237-MB531/MRAL-k0 (antibody, mouse IgG1, kappa)
heavy: B1 heavy with E229Q, L235E, N320D, D322A, K330R
light: not shown
notes: copies: 2 + 2
B23: H237-MB754/MRAL-k0 (antibody, mouse IgG1, kappa)
heavy: B1 heavy with N320D, D322A
light: not shown
notes: copies: 2 + 2
B24: H237-MB540/MRAL-k0 (antibody, mouse IgG1, kappa)
heavy: B1 heavy with L235M, S294L
light: not shown
notes: copies: 2 + 2
B25: H237-MB515/MRAL-k0 (antibody, mouse IgG1, kappa)
heavy: B1 heavy with L235M, D322A
light: not shown
notes: copies: 2 + 2
B26: H237-MB748/MRAL-k0 (antibody, mouse IgG1, kappa)
heavy: B1 heavy with S263A, D322A
light: not shown
notes: copies: 2 + 2
B27: H237-MB759/MRAL-k0 (antibody, mouse IgG1, kappa)
heavy: B1 heavy with N320D, D322A, K330R
light: not shown
notes: copies: 2 + 2
B28: H237-MB749/MRAL-k0 (antibody, mouse IgG1, kappa)
heavy: B1 heavy with Q291L, D322A
light: not shown
notes: copies: 2 + 2
B29: H237-MB547/MRAL-k0 (antibody, mouse IgG1, kappa)
heavy: B1 heavy with L235M, S294L, K330R
light: not shown
notes: copies: 2 + 2
B30: H237-MB532/MRAL-k0 (antibody, mouse IgG1, kappa)
heavy: B1 heavy with E229Q, L235E, K330R
light: not shown
notes: copies: 2 + 2

Tests used:
[1] = molecular target: T1, mouse FcγRII extracellular domain, …; assay: SPR (Biacore T200), antibody captured on Protein L, mFcγR analyte
Description: (§1) Each altered antibody was analyzed for its interaction with each Fcγ receptor prepared above using Biacore T100 (GE Healthcare Japan Corp.), Biacore T200 (GE Healthcare Japan Corp.), Biacore A100, or Biacore 4000. The running buffer used was HBS-EP+ (GE Healthcare Japan Corp.). The assay temperature was set to 25° C. The sensor chips used were chips prepared by immobilizing Protein L (ACTIGEN or BioVision) onto Series S Sensor Chip CM5 (GE Healthcare Japan Corp.) or Series S Sensor Chip CM4 (GE Healthcare Japan Corp.) by the amine coupling method.
(§2) In order to calculate the KD value of each altered antibody for FcγR, kinetic analysis was conducted according to the following method: first, the antibody of interest was captured onto any of these chips and allowed to interact with mFcγR diluted with a running buffer. For the obtained sensorgram, the assay results were globally fit into the 1:1 Langmuir binding model using Biacore Evaluation Software to calculate an association rate constant ka (L/mol/s) and a dissociation rate constant kd (1/s). From these values, the dissociation constant KD (mol/L) was calculated.

[2] = molecular target: T2, mouse FcγRIII extracellular domain, …; assay: as above
Description: as §1, §2

Row | Binder | Kd [1] [nM] | relative mFcγRII-binding activity (mIgG1 = 1) [1] | Kd [2] [nM] | relative mFcγRIII-binding activity (mIgG1 = 1) [2]
1 | B1 | 7.13 | 29.4 fold vs H237-mIgG1/MRAL-k0 | 705 | 0.4 fold vs H237-mIgG1/MRAL-k0
2 | B2 | 0.53 | 396 fold vs H237-mIgG1/MRAL-k0 | 36.8 | 7.7 fold vs H237-mIgG1/MRAL-k0
3 | B3 | 0.804 | 261 fold vs H237-mIgG1/MRAL-k0 | 107 | 2.6 fold vs H237-mIgG1/MRAL-k0
4 | B4 | 14.7 | 14.3 fold vs H237-mIgG1/MRAL-k0 | 1120 | 0.3 fold vs H237-mIgG1/MRAL-k0
5 | B5 | 0.547 | 384 fold vs H237-mIgG1/MRAL-k0 | 83.3 | 3.4 fold vs H237-mIgG1/MRAL-k0
6 | B6 | 1.29 | 163 fold vs H237-mIgG1/MRAL-k0 | 106 | 2.7 fold vs H237-mIgG1/MRAL-k0
7 | B7 | 0.534 | 394 fold vs H237-mIgG1/MRAL-k0 | 39 | 7.2 fold vs H237-mIgG1/MRAL-k0
8 | B8 | 0.498 | 422 fold vs H237-mIgG1/MRAL-k0 | 33.2 | 8.5 fold vs H237-mIgG1/MRAL-k0
9 | B9 | 2 | 105 fold vs H237-mIgG1/MRAL-k0 | 147 | 1.9 fold vs H237-mIgG1/MRAL-k0
10 | B10 | 0.768 | 273 fold vs H237-mIgG1/MRAL-k0 | 51 | 5.5 fold vs H237-mIgG1/MRAL-k0
11 | B11 | 19.8 | 10.6 fold vs H237-mIgG1/MRAL-k0 | 1330 | 0.2 fold vs H237-mIgG1/MRAL-k0
12 | B12 | 0.76 | 276 fold vs H237-mIgG1/MRAL-k0 | 87.2 | 3.2 fold vs H237-mIgG1/MRAL-k0
13 | B13 | 0.745 | 282 fold vs H237-mIgG1/MRAL-k0 | 47.6 | 5.9 fold vs H237-mIgG1/MRAL-k0
14 | B14 | 2.44 | 86.2 fold vs H237-mIgG1/MRAL-k0 | 164 | 1.7 fold vs H237-mIgG1/MRAL-k0
15 | B15 | 0.337 | 623 fold vs H237-mIgG1/MRAL-k0 | 35.1 | 8 fold vs H237-mIgG1/MRAL-k0
16 | B16 | 8.25 | 25.4 fold vs H237-mIgG1/MRAL-k0 | 890 | 0.3 fold vs H237-mIgG1/MRAL-k0
17 | B17 | 0.589 | 357 fold vs H237-mIgG1/MRAL-k0 | 71.7 | 3.9 fold vs H237-mIgG1/MRAL-k0
18 | B18 | 0.412 | 510 fold vs H237-mIgG1/MRAL-k0 | 31.7 | 8.9 fold vs H237-mIgG1/MRAL-k0
19 | B19 | 4.13 | 50.8 fold vs H237-mIgG1/MRAL-k0 | 232 | 1.2 fold vs H237-mIgG1/MRAL-k0
20 | B20 | 1.08 | 195 fold vs H237-mIgG1/MRAL-k0 | 126 | 2.2 fold vs H237-mIgG1/MRAL-k0
21 | B21 | 1 | 210 fold vs H237-mIgG1/MRAL-k0 | 52.1 | 5.4 fold vs H237-mIgG1/MRAL-k0
22 | B22 | 0.918 | 229 fold vs H237-mIgG1/MRAL-k0 | 85 | 3.3 fold vs H237-mIgG1/MRAL-k0
23 | B23 | 10 | 21 fold vs H237-mIgG1/MRAL-k0 | 1130 | 0.2 fold vs H237-mIgG1/MRAL-k0
24 | B24 | 1.41 | 149 fold vs H237-mIgG1/MRAL-k0 | 99.4 | 2.8 fold vs H237-mIgG1/MRAL-k0
25 | B25 | 1.53 | 137 fold vs H237-mIgG1/MRAL-k0 | 214 | 1.3 fold vs H237-mIgG1/MRAL-k0
26 | B26 | 17.9 | 11.7 fold vs H237-mIgG1/MRAL-k0 | 2060 | 0.1 fold vs H237-mIgG1/MRAL-k0
27 | B27 | 6.21 | 33.8 fold vs H237-mIgG1/MRAL-k0 | 646 | 0.4 fold vs H237-mIgG1/MRAL-k0
28 | B28 | 8.3 | 25.3 fold vs H237-mIgG1/MRAL-k0 | 740 | 0.4 fold vs H237-mIgG1/MRAL-k0
29 | B29 | 1.23 | 170 fold vs H237-mIgG1/MRAL-k0 | 62.3 | 4.5 fold vs H237-mIgG1/MRAL-k0
30 | B30 | 0.639 | 329 fold vs H237-mIgG1/MRAL-k0 | 45.4 | 6.2 fold vs H237-mIgG1/MRAL-k0
